For the assay, the target named is prostate apoptosis response protein 4 (Par-4), endogenous in native colon cancer cells (human (endogenous in HT29 and SW480)) (UniProt Q96IZ0). Kind of assay: co-IP; Par-4 immunoprecipitated from lysates of native HT29 cells treated for 24 h with vehicle or 12.5 or 25 μM ISC-4 (AKT inhibitor); immunoprecipitates immunoblotted with PKA, NFκB p50 and 14-3-3 antibodies. For orientation: In western blotting, separated proteins are transferred to a membrane and probed.
Sequence of UniProt Q96IZ0 (Q96IZ0 whole entry): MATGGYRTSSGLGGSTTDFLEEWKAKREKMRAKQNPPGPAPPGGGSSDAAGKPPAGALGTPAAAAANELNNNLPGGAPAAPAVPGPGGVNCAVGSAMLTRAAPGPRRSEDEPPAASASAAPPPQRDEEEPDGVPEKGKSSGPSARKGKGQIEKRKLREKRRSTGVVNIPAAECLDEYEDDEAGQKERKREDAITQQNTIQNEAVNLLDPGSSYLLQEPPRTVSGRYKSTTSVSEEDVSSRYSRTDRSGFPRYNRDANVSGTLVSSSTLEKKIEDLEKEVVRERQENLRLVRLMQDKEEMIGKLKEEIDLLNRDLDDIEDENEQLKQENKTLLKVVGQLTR

Sequence of 14-3-3 (P63104 whole entry): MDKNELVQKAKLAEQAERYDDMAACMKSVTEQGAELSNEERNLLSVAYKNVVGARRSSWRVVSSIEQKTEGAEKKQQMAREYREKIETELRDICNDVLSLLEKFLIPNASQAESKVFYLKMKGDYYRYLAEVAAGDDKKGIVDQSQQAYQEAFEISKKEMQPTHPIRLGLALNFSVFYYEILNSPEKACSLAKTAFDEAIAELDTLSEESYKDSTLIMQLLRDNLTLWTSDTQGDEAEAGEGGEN

“14-3-3 (from UniProt P63104 1-245) (natural protein)” gave a fold decrease of Par-4 binding with ISC-4 against vehicle of 3 fold.

These data come from article PMC2883962.
